The record followed here is patent US20180163218.

Test in all cases: cell_activity
Data set [1] deals with eZFN14 zinc finger nuclease (FokI). The settings on record: soybean F1, CsVMV promoter; complete excision 0.00%.
Data set [2] has as its system eZFN2 zinc finger nuclease (FokI). To be noted: maize; two identical sites flanking aad-1 cassette; 23 of 621 plants.
Data set [3] concerns eZFN4 zinc finger nuclease (FokI). To be noted: soybean F1, AtUbi3 promoter; chimeric 4.43%; with CsVMV promoter 0.00% complete, 1.58% chimeric.
Data set [4] concerns eZFN4-HF zinc finger nuclease (high fidelity FokI). The settings on record: soybean F1, AtUbi10 promoter; chimeric excision 10.68%.

On to “TGGTCATCCTCATCCTGTCTATGCCCGGGACAAGTG (double strand) [eZFN14 binding site]”, for which, in data set [1], the activity (% chimeric excision) is 2.82. Sequence “AAGACTCCCGCCCATCTCTCTATGCCCGGGACAAGTG (double strand) [eZFN2 binding site]” registered an activity (% F1 plants with aad-1 excised) in data set [2] of 3.7. With “GCCTTTTGCAGTTTATCTCTATGCCCGGGACAAGTG (double strand) [eZFN4 binding site]”, the activity (% complete excision) in data set [3] is 0.13; in data set [4], 1.23.
